Results: patent publication US20260070984A1 (Boehringer Ingelheim, published 2026)
Where two headings read alike, the source gives them in different places.

Tests used:
[1] = target: T1, human PD-1 expressed on cells (human, UniProt Q15116 25-288); assay: cell-based or functional assay
[2] = target: T1, human PD-1 expressed on cells; assay: cell-based or functional assay; remark: listed apart in the source
[3] = target: T1, human PD-1 expressed on cells; assay: cell-based or functional assay; remark: listed apart in the source
[4] = target: T1, human PD-1 expressed on cells; assay: cell-based or functional assay; remark: listed apart in the source
[5] = target: T2, recombinant human PD-1 (human, UniProt Q15116 25-167, limits assumed); assay: SPR, ProteOn XPR36
T2 construct: Soluble recombinant protein used in SPR; also called PDCD1; purified recombinant human PD-1
Protocol: Kinetics and binding affinities were measured using the ProteOn™ XPR36 (Biorad, Hercules, CA) surface plasmon resonance optical biosensor using material generated from transient transfection following single column purification.

[6] = target: T2, recombinant human PD-1; assay: SPR, ProteOn XPR36, 1:1 binding model
Protocol: Antibody PD1AB-6-4P (antibody in IgG4Pro backbone disclosed in WO2017/058859 to Celgene) was also tested.

[7] = target: T3, cynomologous PD-1 (cynomolgus monkey, UniProt B0LAJ3 25-170); assay: SPR, ProteOn XPR36, 1:1 binding model
T3 construct: Used in SPR; also called cynomolgus PD-1; recombinant cynomologus PD-1
Protocol: C) Affinity and kinetic data for the anti-PD-1 antibodies binding to cynomologous PD-1 were measured on the ProteOn™ XPR36 surface plasmon resonance optical biosensor, and globally fit to a 1:1 binding model (Table 11).

[8] = target: T1, human PD-1 expressed on cells; assay: DELFIA Eu TRF assay: enhancement of biotin labeled PD-L1 binding to CHO cells expressing PD-1
Protocol: (§1) 10,000 cells were plated and incubated overnight at 37° C.±5% CO2 incubator (humidified incubator). […] Plates were washed twice with 50 μl of 1× TRF Wash Buffer. 20 μL of Eu-Streptavidin reagent was added to the assay plate, and incubated at room temperature for one hour. Enhancement Solution was added and incubated for 30 minutes at RT.

[9] = target: T1, human PD-1 expressed on cells; assay: flow cytometry: enhancement of PDL1-biotin/Streptavidin-APC binding to CHO cells expressing PD-1
Protocol: A second cell-based assay where PD-1 was expressed on CHO cells was also utilized to evaluate PD-1/PD-L1 interactions. […] 50 μl of 2×10⁶ cells/ml were added to each well (100,000 cells/well). Cells were centrifuged and re-suspended in 50 μl of the indicated antibody concentrations and incubated for 60 minutes on ice. […] Cells were washed and resuspended in 180 μl stain buffer +20μ PFA and data was acquired on a BD LSR II.

[10] = target: T3, cynomologous PD-1; assay: SPR, ProteOn XPR36
[11] = target: T1, human PD-1 expressed on cells; assay: CHO-PD1-PDL1 DELFIA Eu TRF assay: enhancement of biotin labeled PD-L1 binding to CHO cells expressing PD-1, antibody titrated
Protocol: as §1

[12] = target: T1, human PD-1 expressed on cells; assay: cell-based or functional assay; remark: listed apart in the source
[13] = target: T1, human PD-1 expressed on cells; assay: cell-based or functional assay; remark: listed apart in the source
[14] = target: T1, human PD-1 expressed on cells; assay: flow cytometry, AlexaFluor 647 labeled antibody on Jurkat cells expressing human PD-1
Protocol: Selectivity of anti-PD-1 antibody to human PD-1 protein in a cell-based assay was evaluated by flow cytometry. […] As a control, parental and PD-1 expressing Jurkat cells were incubated with anti-TNP isotype control antibodies. Following incubation, the cells were washed to remove non-bound antibody, fixed in PFA, and then washed in staining buffer. Binding of the antibody to the Jurkat cells was evaluated by flow cytometry. Unstained cells were also evaluated by flow cytometry as a negative control.

T2 sequence (Q15116 25-167 limits assumed): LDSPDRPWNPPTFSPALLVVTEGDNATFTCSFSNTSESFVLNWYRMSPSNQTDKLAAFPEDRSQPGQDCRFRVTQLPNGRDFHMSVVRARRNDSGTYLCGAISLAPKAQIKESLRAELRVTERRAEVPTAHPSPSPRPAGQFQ
T3 sequence (B0LAJ3 entry or part of it limits assumed): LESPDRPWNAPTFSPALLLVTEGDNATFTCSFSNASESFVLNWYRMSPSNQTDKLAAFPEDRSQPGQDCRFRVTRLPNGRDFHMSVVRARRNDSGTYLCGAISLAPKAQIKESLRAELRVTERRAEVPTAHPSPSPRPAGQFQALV
T1 sequence (Q15116 25-288): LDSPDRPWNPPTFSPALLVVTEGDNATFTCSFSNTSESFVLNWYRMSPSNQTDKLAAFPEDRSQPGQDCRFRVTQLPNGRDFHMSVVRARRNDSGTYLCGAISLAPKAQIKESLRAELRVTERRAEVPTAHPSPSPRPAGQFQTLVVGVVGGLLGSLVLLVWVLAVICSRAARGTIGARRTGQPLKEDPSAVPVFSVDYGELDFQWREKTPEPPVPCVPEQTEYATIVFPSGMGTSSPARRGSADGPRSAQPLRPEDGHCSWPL

IC50 Values (pM), Geomean, inhibition of IL-21 [1] | Emax Values (%), Average, inhibition of IFNγ [2] | IC50 Values (pM), Geomean, inhibition of IFNγ [2] | Emax Values (%), Average, inhibition of IL-17A [4] | IC50 Values (pM), Geomean, inhibition of IL-17A [4] | Kd [6] | koff [6] | kon [6] | Kd [7] | koff [7] | kon [7] | Binder | further results
12 pM | 66.5% | 18 pM | 70% | 14.4 pM | 2.58 nM | 0.000582 s⁻¹ | 226000 M⁻¹ s⁻¹ | 38.9 nM | 0.00721 s⁻¹ | 185000 M⁻¹ s⁻¹ | Chimeric 723C2 in IgG4Pro (antibody, V domains shown) VH: EVQLVESGGGLVQPGGSLKLSCAASGFTFSDYYMSWVRQTPEKRLEWVAYISSGGGSSYYPDSVKGRFTISRDNTKNTLYLQMSSLKSEDTAVYYCARLPHYFAMDYWGQGTSVTVSS VL: EIVLTQSPTTMAASPGEKITITCSASSSISSDYLHWYQQKPGFSPELLIYRTSNLASGVPARFSGSGSGTSYSLTIGSMEAEDVATYYCQQGTSLPRAFGGGTKLEIKR | Emax Values (%), inhibition of NFAT activity [3]: 42.6%; IC50 Values (nM), inhibition of NFAT activity [3]: 0.13 nM; Kd [5]: 2.58 nM; koff [5]: 0.000582 s⁻¹; kon [5]: 226000 M⁻¹ s⁻¹
– | – | – | – | – | – | – | – | – | – | – | antibody 723C2 in human IgG4Pro backbone without the DC to DY mutation in H-CDR3 (antibody, V domains shown, Mouse 723C2 variable domains (H-CDR3 ending DC) in human IgG4Pro backbone; also called 723C2-4P) VH: EVQLVESGGGLVQPGGSLKLSCAASGFTFSDYYMSWVRQTPEKRLEWVAYISSGGGSSYYPDSVKGRFTISRDNTKNTLYLQMSSLKSEDTAVYYCARLPHYFAMDCWGQGTSVTVSS VL: EIVLTQSPTTMAASPGEKITITCSASSSISSDYLHWYQQKPGFSPELLIYRTSNLASGVPARFSGSGSGTSYSLTIGSMEAEDVATYYCQQGTSLPRAFGGGTKLEIK | EC50 (read off the curve) [8]: ~2 nM; EC50 (read off the curve) [9]: ~6 nM
50 pM | 40.1% | 31.5 pM | 67.5% | 176 pM | – | – | – | – | – | – | PD1AB-6-4P (antibody, V domains shown) VH: EVQLVQSGAEVKKPGATVKISCKASGFNIKDTYMHWVQQAPGKGLEWMGRIDPANGDRKYDPKFQGRVTITADTSTDTAYMELSSLRSEDTAVYYCARSGPVYYYGSSYVMDYWGQGTTVTVSS VL: DIVMTQSPDSLAVSLGERATINCKSGQSVLYSSNQKNFLAWYQQKPGQPPKLLIYWASTRESGVPDRFSGSGSGTDFTLTISSLQAEDVAVYYCHQYLYSWTFGQGTKLEIK | Kd [10]: 25 nM
6 pM | 46.8% | 17.7 pM | 62.9% | 32.5 pM | 2.65 nM | 0.000463 s⁻¹ | 175000 M⁻¹ s⁻¹ | 41 nM | 0.00633 s⁻¹ | 154000 M⁻¹ s⁻¹ | Antibody C (antibody, human IgG4 S228P, kappa, V domains shown, Humanized 723C2, human IgG4Pro/kappa; also called Ab C; 723C2-IgG4Pro-461-47 with IgK-462-07) VH: EVQLVESGGGLVQPGGSLRLSCAASGFTFSDYYMSWVRQAPGKGLEWVAYISSGGGSSYYPDAVKGRFTISRDNAKQSLYLQMQSLRAEDTAVYYCARLPHYFAMDYWGQGTLVTVSS VL: DIQMTQSPSSLSASVGDRVTITCQASQSISSDYLHWYQQKPGKAPKLLIYRTSNLETGVPSRFSGSGSGTDFTFTISSLQPEDIATYYCQQGTSLPRAFGQGTKLEIKR | EC50 [11]: 2.4 nM; IC50 Values (nM), Geomean, inhibition of IFNγ [12]: 0.03 nM; IC50 Values (nM), Geomean, inhibition of IFNγ [13]: 0.03 nM; EC50 (read off the curve) [14]: ~10 nM
